The target of data set [1] is unmyristoylated recoverin (bovine) (UniProt P21457). The data set is described as follows: NMR pulsed-field gradient diffusion.
For data set [2] the target is unchanged. Put plainly: 15N NMR relaxation.
The data set “CW-EPR line shape” deals with the molecule itself. Put plainly: CW-EPR line shape.

In the case of “unmyristoylated recoverin (from UniProt P21457 1-202) (natural protein)”, the stoichiometry N in data set [1] and in data set [2] was 2 in each case.

B1: myristoylated recoverin spin-labeled only at Cys39 (natural protein, bovine)
chain: GNSKSGALSKEILEELQLNTKFTEEELSSWYQSFLKECPSGRITRQEFQTIYSKFFPEADPKAYAQHVFRSFDANSDGTLDFKEYVIALHMTSAGKTNQKLEWAFSLYDVDGNGTISKNEVLEIVTAIFKMISPEDTKHLPEDENTPEKRAEKIWGFFGKKDDDKLTEKEFIEGTLANKEILRLIQFEPQKVKEKLKEKKL
modifications: N-terminal myristoyl group; nitroxide spin label at the native cysteine C39
As for B1, the stoichiometry N (as a rule, a count of units in the complex or per binding partner) in the data set “CW-EPR line shape” came out at 2.
